The results in this text go back to US10336832.

Test [1] addresses human plasma kallikrein (active form, purified from human plasma and activated with factor XIIa) (human) (UniProt P03952). The experiment in a line: ELISA, target/background. (An ELISA detects its analyte on a solid surface through an enzyme-linked reagent.)
In test [2] the target is pKal catalytic domain Mutant 4 (human) (UniProt P03952). The experiment in a line: Ki,app, equilibrium, fluorogenic substrate.
pKal catalytic domain Mutant 4 (human), sequence (P03952 other isoform, or with tags, fused parts or gaps mutant): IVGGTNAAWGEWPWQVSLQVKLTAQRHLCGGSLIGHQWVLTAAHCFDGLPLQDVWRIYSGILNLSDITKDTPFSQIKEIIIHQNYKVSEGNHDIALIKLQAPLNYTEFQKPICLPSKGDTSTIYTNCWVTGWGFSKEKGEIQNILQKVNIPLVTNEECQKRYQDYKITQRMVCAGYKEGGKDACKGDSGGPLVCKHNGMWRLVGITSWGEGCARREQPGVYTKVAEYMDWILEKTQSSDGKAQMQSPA

human plasma kallikrein (active form, purified from human plasma and activated with factor XIIa) (human), sequence (P03952 20-390 limits assumed, chain 1 of 2): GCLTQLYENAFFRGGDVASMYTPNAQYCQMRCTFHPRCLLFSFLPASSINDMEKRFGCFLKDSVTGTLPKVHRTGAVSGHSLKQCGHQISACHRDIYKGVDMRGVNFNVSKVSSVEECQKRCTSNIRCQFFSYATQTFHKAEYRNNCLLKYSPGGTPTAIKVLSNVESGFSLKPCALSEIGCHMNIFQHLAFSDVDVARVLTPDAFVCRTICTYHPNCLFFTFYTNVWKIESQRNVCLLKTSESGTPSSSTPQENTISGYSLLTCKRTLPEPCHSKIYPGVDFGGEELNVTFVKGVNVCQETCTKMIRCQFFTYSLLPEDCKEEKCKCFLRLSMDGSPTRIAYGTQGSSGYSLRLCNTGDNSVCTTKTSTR
human plasma kallikrein (active form, purified from human plasma and activated with factor XIIa) (human), sequence (P03952 391-638 limits assumed, chain 2 of 2): as the sequence (P03952 other isoform, or with tags, fused parts or gaps mutant) above, with A7S, A8S counted along it

B1: M28-F01 (Fab, V domains shown)
VH: EVQLLESGGGLVQPGGSLRLSCAASGFTFSVYLMHWVRQAPGKGLEWVSGISPSGGYTQYADSVKGRFTISRDNSKNTLYLQMNSLRAEDTAVYYCARPGGLDAFDIWGQGTMVTVSS
VL: DIQMTQSPSSLSASVGDRVTITCRASQSINTYLNWYQQKPGKAPKVLIHAASTLESGVPSRFSGSGSGTDFTLTISSLQPEDFATYYCQQSYSTPPTFGQGTKVEIK
In the case of B1, the ELISA (T/B) in test [1] amounted to 1.5.

B2: M29-E02 (Fab, V domains shown)
VH: EVQLLESGGGLVQPGGSLRLSCAASGFTFSRYPMMWVRQAPGKGLEWVSVIYPSGGDTFYADSVKGRFTISRDNSKNTLYLQMNSLRAEDTAVYYCASGDDYLWEAAVYWGQGTLVTVSS
VL: QSVLTQPPSVSEAPRQRVTISCSGSSSNIGNNAVSWYQQLPGKAPKLLIYYDDLLPSGVSDRFSGSKSGTSASLAISGLRSEDEADYYCAAWDDSLNGFVFGTGTKVTVL
Consider B2, for which, in test [1], the ELISA (T/B) was found to be 2.

B3: X101-A01 (antibody, V domains shown)
VH: EVQLLESGGGLVQPGGSLRLSCAASGFTFSHYLMTWVRQAPGKGLEWVSYISPSGGHTIYADSVKGRFTISRDNSKNTLYLQMNSLRAEDTAVYYCARVARGIAARSRTSYFDYWGQGTLVTVSS
VL: EIVLTQSPGTLSLSPGERATLSCRTSQFVNSNYLAWYQQKPGQAPRLLIYGASSRATGIPDRFSGSGSGTDFTLTISRLEPEDFAVYYCQQSSRTPWTFGQGTKVEIK
Molecule B3 displayed a Ki in test [2] of 0.25 nM.
